Source: the Human Domainome abundance scans (Beltran et al. 2025)

B1: POU domain, class 3, transcription factor 2, residues 262 to 338; numbered along this chain, P20265 (parent)
chain: EDTPTSDDLEQFAKQFKQRRIKLGFTQADVGLALGTLYGNVFSQTTICRFEALQLSFKNMCKLKPLLNKWLEEADSS
B2: Lysine-specific demethylase 2B, residues 656 to 722; numbered along this chain, Q8NHM5 (parent)
chain: LPHTAVCLVCGEAGKEDTVEEEEGKFNLMLMECSICNEIIHPGCLKIKESEGVVNDELPNCWECPKC

Variants of: B1
Test: abundance fitness (aPCA) (normalised: wild type 0, dead -1); higher = more abundant; growth selection in yeast, the domain comes from the species named
Details: Homo sapiens

Abundance fitness, by site and new letter:
D75: V -0.135; M -0.022; R -0.058; S 0.032; T -0.014; Y -0.046; L -0.133; P -0.106; N -0.032; K -0.058; W -0.085
S77: T 0.073; I -0.031; H -0.011; G 0.061; F -0.155; N -0.169; W -0.105; K -0.097; V 0.008; L -0.028; C -0.184; E -0.016; P 0.003; R 0.054; D -0.003; A 0.115; M -0.17
S76: C -0.075; F -0.161; Y -0.14; Q 0.055; M -0.021; L -0.099; P -0.012; T -0.019; G 0.004; W -0.163; I -0.153; A 0.05; E 0.002; H 0.023; R 0.028; D 0.042; V 0.01; K 0.021; N 0.013

Variants of: B2
Test: as above
Details: Homo sapiens

Abundance fitness, by site and new letter:
A5: T 0.138; G -0.338; P 0.006; E -0.696; L -0.004; N -0.051; W 0.055; K 0.038; R 0.073; Q -0.095; M 0.195; D -0.726; S -0.192; Y 0.625; C 0.07
H3: W -0.572; K 0.506; A -0.013; F -0.359; L 0.048; C -0.642; M 0.478; N 0.177; P -0.14; Q -0.015; E 0.34; Y -0.328; G 0.42; V 0.234; T 0.147
C7: Y -1.04; D -0.902; R -0.908; A -0.691; T -0.491
T4: E -0.448; I -0.288; C -0.395; N -0.205; S -0.345; M -0.878; W -0.889; G -0.623; L -1.21; A -0.889; K -0.964; D -0.2; R -0.979; V -0.947; Q -0.729
V6: S -0.094; P -0.124; Q -0.541; E -0.378; A -0.557; R -0.285; D -0.293; L -0.004; I 0.145; H 0.409; N -0.085; W -0.759; T 0.12; G -0.64; K 0.194
P2: N 0.758; Q 0.184; A 0.708; R 0.664; W 0.667; D 0.787; F 0.359; E 0.854; Y 0.713; S 0.729; I 0.783; K 0.78; C 0.396; G 0.588; L 0.807; T 0.844
V9: M -0.049; D -0.287; C -0.817; N 0.239; Q -0.635; A -0.042; P -0.707; L -0.126; F -0.257; R -0.297; I 0.226; G -0.273; K 0.088; E -0.053
L1: C 0.414; F 0.761; E -0.245; H -0.174; M 0.071; K -0.363; T 0.035; A -0.175; Q -0.468; W -0.426; G -0.129; I 0.781; S -0.069; N 1.01; R -0.185
L8: K 0.146; E -0.584; S -0.34; M 0.172; H -0.281; P -0.433; R 0.104; G -0.588; D -0.573; I 0.099
